# Source: paper PMC5025757, “Sequences flanking the core-binding site modulate glucocorticoid receptor structure and activity”
# B1: A-Sgk-T EMSA (dsDNA)
# DNA 1: ACCAAGAACATTTTGTCCGTCTC
# DNA 2: GAGACGGACAAAATGTTCTTGGT
# B2: A-Cgt-T EMSA (dsDNA)
# DNA 1: ACCAAGAACATTTTGTACGTCTC
# DNA 2: GAGACGTACAAAATGTTCTTGGT
# B3: Cgt A-T NMR (dsDNA)
# DNA 1: GCCAAGAACATTTTGTACGTCTCG
# DNA 2: CGAGACGTACAAAATGTTCTTGGC
# B4: G-Cgt-C EMSA (dsDNA)
# DNA 1: ACCGAGAACATTTTGTACGCCTC
# DNA 2: GAGGCGTACAAAATGTTCTCGGT
# B5: G-Sgk-C EMSA (dsDNA)
# DNA 1: ACCGAGAACATTTTGTCCGCCTC
# DNA 2: GAGGCGGACAAAATGTTCTCGGT
# B6: Cgt G-C NMR (dsDNA)
# DNA 1: GCCGAGAACATTTTGTACGCCTCG
# DNA 2: CGAGGCGTACAAAATGTTCTCGGC
# B7: Cgt A-C NMR (dsDNA)
# DNA 1: GCCAAGAACATTTTGTACGCCTCG
# DNA 2: CGAGGCGTACAAAATGTTCTTGGC
# Legend:
# GR DBD wild type [1] = biological target: T1, GR DBD wild type (rat, UniProt P06536 440-525); test: EMSA; value only in figure; similar Kd for A/T and G/C flanks; EMSA: 20 mM Tris pH 7.5, 2 mM MgCl2, 1 mM EDTA, 10% glycerol, 0.3 mg/ml BSA, 4 mM DTT, 0.05 ug/ul dIdC, 1.25 nM DNA, 30 min; NMR: 20 mM Na phosphate, 100 mM NaCl, 1 mM DTT, pH 6.7, 5% D2O, imino titration at 25 C; details: protein: recombinant; chain copies: 2; label: Cy5 5' of strand 1; blunt
# T1 sequence (P06536 440-525): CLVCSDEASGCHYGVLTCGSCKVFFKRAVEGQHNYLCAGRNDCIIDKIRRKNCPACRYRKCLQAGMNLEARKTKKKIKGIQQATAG
# [2] = biological target: GR DBD A477T (dim mutant) (rat, UniProt P06536 440-525, A477T); test: EMSA; affinity lower than wild type; EMSA: 20 mM Tris pH 7.5, 2 mM MgCl2, 1 mM EDTA, 10% glycerol, 0.3 mg/ml BSA, 4 mM DTT, 0.05 ug/ul dIdC, 1.25 nM DNA, 30 min; NMR: 20 mM Na phosphate, 100 mM NaCl, 1 mM DTT, pH 6.7, 5% D2O, imino titration at 25 C; details: protein: recombinant; chain copies: 2; label: Cy5 5' of strand 1; blunt
# GR DBD A477T (dim mutant), sequence (P06536 440-525 A477T): as the sequence (P06536 440-525) above, with A38T counted along it
# GR DBD wild type [3] = biological target: T1, GR DBD wild type; test: NMR (1D imino proton titration); G46 more broadened than with G/C; 25 C; EMSA: 20 mM Tris pH 7.5, 2 mM MgCl2, 1 mM EDTA, 10% glycerol, 0.3 mg/ml BSA, 4 mM DTT, 0.05 ug/ul dIdC, 1.25 nM DNA, 30 min; NMR: 20 mM Na phosphate, 100 mM NaCl, 1 mM DTT, pH 6.7, 5% D2O, imino titration at 25 C; details: protein: recombinant; chain copies: 2; blunt
# GR DBD wild type [4] = biological target: T1, GR DBD wild type; test: EMSA; value only in figure; slightly higher affinity than A/T; EMSA: 20 mM Tris pH 7.5, 2 mM MgCl2, 1 mM EDTA, 10% glycerol, 0.3 mg/ml BSA, 4 mM DTT, 0.05 ug/ul dIdC, 1.25 nM DNA, 30 min; NMR: 20 mM Na phosphate, 100 mM NaCl, 1 mM DTT, pH 6.7, 5% D2O, imino titration at 25 C; details: protein: recombinant; chain copies: 2; label: Cy5 5' of strand 1; blunt
# GR DBD wild type [5] = biological target: T1, GR DBD wild type; test: NMR (1D imino proton titration); 25 C; EMSA: 20 mM Tris pH 7.5, 2 mM MgCl2, 1 mM EDTA, 10% glycerol, 0.3 mg/ml BSA, 4 mM DTT, 0.05 ug/ul dIdC, 1.25 nM DNA, 30 min; NMR: 20 mM Na phosphate, 100 mM NaCl, 1 mM DTT, pH 6.7, 5% D2O, imino titration at 25 C; details: protein: recombinant; chain copies: 2; blunt
# GR DBD wild type [6] = biological target: T1, GR DBD wild type; test: NMR (15N-HSQC); EMSA: 20 mM Tris pH 7.5, 2 mM MgCl2, 1 mM EDTA, 10% glycerol, 0.3 mg/ml BSA, 4 mM DTT, 0.05 ug/ul dIdC, 1.25 nM DNA, 30 min; NMR: 20 mM Na phosphate, 100 mM NaCl, 1 mM DTT, pH 6.7, 5% D2O, imino titration at 25 C; details: protein: recombinant; chain copies: 2; blunt
binder,measurement,setting,value
B1,binding result,GR DBD wild type [1],binds
B2,binding result,GR DBD wild type [1],binds
same,Kd,[2],3.1 ± 0.4 µM
B3,binding result,GR DBD wild type [3],binds
B4,binding result,GR DBD wild type [4],binds
same,Kd,[2],3.5 ± 1.1 µM
B5,binding result,GR DBD wild type [1],binds
B6,binding result,GR DBD wild type [5],binds
B7,binding result,GR DBD wild type [6],binds
